One block for each binder: values may come before it.
Legend:
recombinant human TSLP [1] = biological target: T1, recombinant human TSLP (human, UniProt Q969D9 29-159); experiment: SPR; column 'SPR (Biophysical binding): TSLP (pM)'
T1 construct: also called thymic stromal lymphopoietin
Method: (§1) SPR studies were carried out on a Biacore 3000 instrument with a CM5 chip at 25° C. The running buffer comprised 25 mM Hepes, pH 7.5, 150 mM NaCl, 0.5 mg/ml BSA, 0.005% P20. Antibodies were captured via protein A using approximately a 1/50 dilution of each antibody in the running buffer and a 2-minute contact time at a 10 μl/min flow rate. Protein A was immobilized on a CM5 chip via standard amine coupling chemistry in 10 mM acetate pH 4.5. Approximately 800 RU of each antibody was captured. The surfaces were regenerated via a 10 mM glycine pH 1.5 between cycles. Between assays the chip was regenerated with a 2-minute pulse of 100 mM Phosphoric acid. Prior to setting up multicycle kinetic analysis analyte concentration was determined spectrophotometrically using an extinction coefficient of 72,880 M⁻¹ cm⁻¹ for IL4R and 18450 M⁻¹ cm⁻¹ for the TSLP proteins respectively. Analyte samples were prepared by diluting stocks into running buffer to a final concentration of 500 nM for the IL-4R and 25 nM for TSLP followed by serially diluting with a 2-fold series with an association time of 2.5 minutes at a 50 μl/min flow rate. Dissociation data was collected for a period of 1600 seconds. Raw data was analyzed using the Scrubber2 (Biologic Software, AU) program using a double referencing procedure where compound signal is corrected to a blank surface and a buffer injection over the captured antibody surface. Kinetic data was analyzed by fitting to a simple 1:1 binding model. […] The candidates are further described in Table 3.

recombinant human TSLP [2] = biological target: T1, recombinant human TSLP; experiment: cell-based or functional assay
[3] = biological target: IL-4R on human donor PBMC (B-cells) (human, UniProt P24394 26-825); experiment: cell-based or functional assay
recombinant human TSLP [4] = biological target: T1, recombinant human TSLP; experiment: SPR (Biacore 3000, CM5 chip, 25 C): complex captured via protein A, TSLP as analyte, 1:1 fit; column 'TSLP binding(pM)'
Method: as §1

Kd (recombinant human TSLP [1]): 0.0208 nM
IC50, PBMC assay in response to TSLP (TARC secretion) (recombinant human TSLP [2]): 2.3 nM
IC50, IL-4 biological assay (CD23 upregulation in PBMCs) [3]: > 200 nM
Kd (recombinant human TSLP [4]): 0.0208 nM
B1: Candidate-21: TSLP TRAP 1_Linker-GS4_Dupilumab-YTE (bispecific antibody, human IgG4 S228P, kappa)
heavy: GAAEGVQIQIIYFNLETVQVTWNASKYSRTNLTFHYRFNGDEAYDQCTNYLLQEGHTSGCLLDAEQRDDILYFSIRNGTHPVFTASRWMVYYLKPSSPKHVRFSWHQDAVTVTCSDLSYGDLLYEVQYRSPFDTEWQSKQENTCNVTIEGLDAEKCYSFWVRVKAMEDVYGPDTYPSDWSEVTCWQRGEIRDACAETPTPPKPKLSKGGSGGSGGSGGSGGSGGSGGSGGSGGSGGSGGSGGSGGSGGSGGSGGSGGSGGSGGSGGSESGYAQNGDLEDAELDDYSFSCYSQLEVNGSQHSLTCAFEDPDVNITNLEFEICGALVEVKCLNFRKLQEIYFIETKKFLLIGKSNICVKVGEKSLTCKKIDLTTIVKPEAPFDLSVVYREGANDFVVTFNTSHLQKKYVKVLMHDVAYRQEKDENKWTHVNLSSTKLTLLQRKLQPAAMYEIKVRSIPDHYFKGFWSEWSPSYYFRTPEINNSSGEMDGGGGSGGGGSGGGGSGGGGSEVQLVESGGGLEQPGGSLRLSCAGSGFTFRDYAMTWVRQAPGKGLEWVSSISGSGGNTYYADSVKGRFTISRDNSKNTLYLQMNSLRAEDTAVYYCAKDRLSITIRPRYYGLDVWGQGTTVTVSSASTKGPSVFPLAPCSRSTSESTAALGCLVKDYFPEPVTVSWNSGALTSGVHTFPAVLQSSGLYSLSSVVTVPSSSLGTKTYTCNVDHKPSNTKVDKRVESKYGPPCPPCPAPEFLGGPSVFLFPPKPKDTLYITREPEVTCVVVDVSQEDPEVQFNWYVDGVEVHNAKTKPREEQFNSTYRVVSVLTVLHQDWLNGKEYKCKVSNKGLPSSIEKTISKAKGQPREPQVYTLPPSQEEMTKNQVSLTCLVKGFYPSDIAVEWESNGQPENNYKTTPPVLDSDGSFFLYSRLTVDKSRWQEGNVFSCSVMHEALHNHYTQKSLSLSLG
light: DIVMTQSPLSLPVTPGEPASISCRSSQSLLYSIGYNYLDWYLQKSGQSPQLLIYLGSNRASGVPDRFSGSGSGTDFTLKISRVEAEDVGFYYCMQALQTPYTFGQGTKLEIKRTVAAPSVFIFPPSDEQLKSGTASVVCLLNNFYPREAKVQWKVDNALQSGNSQESVTEQDSKDSTYSLSSTLTLSKADYEKHKVYACEVTHQGLSSPVTKSFNRGEC
notes: TRAP sits at the N-terminus of the heavy chain

Kd (recombinant human TSLP [1]): 0.019 nM
IC50, PBMC assay in response to TSLP (TARC secretion) (recombinant human TSLP [2]): 0.43 nM
IC50, IL-4 biological assay (CD23 upregulation in PBMCs) [3]: > 200 nM
Kd (recombinant human TSLP [4]): 0.019 nM
B2: Candidate-22: TSLP TRAP 2_Linker-GS4_Dupilumab-YTE (bispecific antibody, human IgG4 S228P, kappa)
heavy: ESGYAQNGDLEDAELDDYSFSCYSQLEVNGSQHSLTCAFEDPDVNITNLEFEICGALVEVKCLNFRKLQEIYFIETKKFLLIGKSNICVKVGEKSLTCKKIDLTTIVKPEAPFDLSVVYREGANDFVVTFNTSHLQKKYVKVLMHDVAYRQEKDENKWTHVNLSSTKLTLLQRKLQPAAMYEIKVRSIPDHYFKGFWSEWSPSYYFRTPEINNSSGEMDGGSGGSGGSGGSGGSGGSGGSGGSGGSGGSGGSGGSGGSGGSGGSGGSGGSGGSGGSGGSGAAEGVQIQIIYFNLETVQVTWNASKYSRTNLTFHYRFNGDEAYDQCTNYLLQEGHTSGCLLDAEQRDDILYFSIRNGTHPVFTASRWMVYYLKPSSPKHVRFSWHQDAVTVTCSDLSYGDLLYEVQYRSPFDTEWQSKQENTCNVTIEGLDAEKCYSFWVRVKAMEDVYGPDTYPSDWSEVTCWQRGEIRDACAETPTPPKPKLSKGGGGSGGGGSGGGGSGGGGSEVQLVESGGGLEQPGGSLRLSCAGSGFTFRDYAMTWVRQAPGKGLEWVSSISGSGGNTYYADSVKGRFTISRDNSKNTLYLQMNSLRAEDTAVYYCAKDRLSITIRPRYYGLDVWGQGTTVTVSSASTKGPSVFPLAPCSRSTSESTAALGCLVKDYFPEPVTVSWNSGALTSGVHTFPAVLQSSGLYSLSSVVTVPSSSLGTKTYTCNVDHKPSNTKVDKRVESKYGPPCPPCPAPEFLGGPSVFLFPPKPKDTLYITREPEVTCVVVDVSQEDPEVQFNWYVDGVEVHNAKTKPREEQFNSTYRVVSVLTVLHQDWLNGKEYKCKVSNKGLPSSIEKTISKAKGQPREPQVYTLPPSQEEMTKNQVSLTCLVKGFYPSDIAVEWESNGQPENNYKTTPPVLDSDGSFFLYSRLTVDKSRWQEGNVFSCSVMHEALHNHYTQKSLSLSLG
light: B1 light
notes: The chains here are built from the component entries; TRAP sits at the N-terminus of the heavy chain
